Reference: the Human Domainome abundance scans (Beltran et al. 2025)
± gives the uncertainty stated by the source.

B1: Gamma-crystallin S, residues 96 to 176; numbered along this chain, P22914 (parent)
chain: IQIFEKGDFSGQMYETTEDCPSIMEQFHMREIHSCKVLEGVWIFYELPNYRGRQYLLDKKEYRKPIDWGAASPAVQSFRRI

Variants of: B1
Assay: abundance fitness (aPCA) (normalised: wild type 0, dead -1); higher = more abundant; growth selection in yeast, the domain comes from the species named
Details: Homo sapiens

Abundance fitness of substitutions, site by site:
F78: A -0.136 ± 0.17; H -0.229 ± 0.37
K60: W -0.116 ± 0.17; D -0.251 ± 0.49; V -0.242 ± 0.18; R -0.143 ± 0.14; E -0.049 ± 0.27; C 0.021 ± 0.23; L -0.035 ± 0.13; G 0.017 ± 0.086; Q 0.064 ± 0.28; P -0.154 ± 0.18; A -0.001 ± 0.17; I -0.18 ± 0.33; N 0.111 ± 0.25; S 0.005 ± 0.13; M 0.078 ± 0.17
G52: A -0.741 ± 0.069; K -0.438 ± 0.12; F -0.246 ± 0.36; P -0.89 ± 0.24; V -1.05 ± 0.12; D -0.788 ± 0.12; T -0.95 ± 0.19; C -0.631 ± 0.17; E -0.949 ± 0.2; M -0.912 ± 0.13; R -0.766 ± 0.084; S -0.457 ± 0.068; L -0.805 ± 0.089; Q -1 ± 0.13; Y -0.95 ± 0.37; W -1.01 ± 0.17
A70: E -0.004 ± 0.093; T -0.037 ± 0.2; G 0.108 ± 0.099; F -0.025 ± 0.18; V -0.003 ± 0.11; R 0.104 ± 0.093; I 0.111 ± 0.18; H 0.32 ± 0.27; P 0.042 ± 0.3; M -0.023 ± 0.13; W -0.147 ± 0.16; Y 0.258 ± 0.19; K 0.169 ± 0.37; D -0.017 ± 0.16; Q -0.057 ± 0.14
W68: K -0.067 ± 0.15; T 0.089 ± 0.2; P -0.289 ± 0.15; S 0.006 ± 0.085; L -0.044 ± 0.17; C -0.026 ± 0.18; A -0.167 ± 0.14; G -0.139 ± 0.11; Y -0.425 ± 0.45; E -0.059 ± 0.14; M 0.131 ± 0.14; R -0.169 ± 0.11
L56: W 0.047 ± 0.14; F 0.04 ± 0.26; Q -0.052 ± 0.17; G 0.064 ± 0.17; S -0.031 ± 0.17; V -0.133 ± 0.44; P 0.166 ± 0.36; T -0.04 ± 0.42; E 0.115 ± 0.2; D 0.309 ± 0.29; K -0.161 ± 0.43; C -0.136 ± 0.42; M -0.228 ± 0.35; R 0.191 ± 0.27
S77: A -0.003 ± 0.18; L -0.932 ± 0.48; G -0.35 ± 0.13; C -0.327 ± 0.44; P -0.457 ± 0.23; T -0.714 ± 0.37
V75: W -0.105 ± 0.16; F 0.146 ± 0.21; L -0.046 ± 0.12; D -0.724 ± 0.28; A -0.021 ± 0.16; R -0.665 ± 0.23; E -0.821 ± 0.22; T -0.211 ± 0.15; G 0.052 ± 0.16
A71: P 0.128 ± 0.43; R 0.007 ± 0.087; E 0.028 ± 0.21; K 0.144 ± 0.32; W 0.018 ± 0.092; H 0.052 ± 0.33; S -0.125 ± 0.12; G 0.01 ± 0.14; Q -0.187 ± 0.3; C -0.048 ± 0.16; M 0.022 ± 0.13; D -0.308 ± 0.49; L -0.223 ± 0.17
G69: V -0.05 ± 0.12; Q -0.166 ± 0.19; M 0.052 ± 0.23; I 0.09 ± 0.22; E 0.006 ± 0.21; P -0.294 ± 0.18; R 0.012 ± 0.11; W -0.018 ± 0.12; C -0.242 ± 0.21; L 0.022 ± 0.13; K -0.127 ± 0.18; S 0.071 ± 0.1; D -0.155 ± 0.13
R63: K -0.093 ± 0.21; T -0.102 ± 0.42; Y -0.158 ± 0.34; V -0.118 ± 0.13; P -0.096 ± 0.46; D -0.051 ± 0.37; E -0.032 ± 0.14; S -0.022 ± 0.16; W 0.065 ± 0.19; L 0.133 ± 0.13; F -0.025 ± 0.31; A -0.098 ± 0.23; G 0.092 ± 0.14
R51: S 0.044 ± 0.056; Q -0.035 ± 0.066; W -0.138 ± 0.065; V -0.026 ± 0.048; T 0.1 ± 0.088; Y -0.166 ± 0.12; P -1.03 ± 0.17
L57: M 0.17 ± 0.18; A -0.039 ± 0.16; P -0.517 ± 0.2; G 0.026 ± 0.12; R -0.288 ± 0.11; K -0.414 ± 0.45; V 0.045 ± 0.16; Q -0.491 ± 0.37; T -0.078 ± 0.16; S 0.171 ± 0.15; N -0.526 ± 0.38; F -0.311 ± 0.26; C -0.273 ± 0.33
P65: Q 0.045 ± 0.35; L -0.064 ± 0.12; C -0.184 ± 0.2; G -0.009 ± 0.14; R 0.033 ± 0.11; A 0.094 ± 0.11; T 0.059 ± 0.19; V 0.141 ± 0.083; W -0.024 ± 0.16; E -0.004 ± 0.28; Y 0.199 ± 0.3; N -0.284 ± 0.34; S -0.008 ± 0.2
A74: M -0.011 ± 0.19; G 0.046 ± 0.12; S -0.111 ± 0.17; Q 0.034 ± 0.17; C 0.203 ± 0.16; R 0.118 ± 0.24; E -0.139 ± 0.29; T -0.159 ± 0.16; V 0.086 ± 0.2; L 0.113 ± 0.12
Q76: E -0.145 ± 0.29; G -0.066 ± 0.34; W -0.441 ± 0.39; L -0.129 ± 0.27
P73: R -0.006 ± 0.11; F 0.27 ± 0.31; L 0.338 ± 0.39; T -0.082 ± 0.39; W 0.089 ± 0.13; E -0.215 ± 0.24; H 0.006 ± 0.31; G -0.309 ± 0.16; D -0.23 ± 0.24
E61: S -0.358 ± 0.22; W 0.086 ± 0.17; H -0.205 ± 0.44; M -0.028 ± 0.41; Q -0.05 ± 0.21; N 0.035 ± 0.45; V 0.084 ± 0.23; L -0.135 ± 0.26
R53: V -0.018 ± 0.038; W -0.257 ± 0.075; Q 0.073 ± 0.065; D 0.048 ± 0.082; E 0.036 ± 0.06; L -0.059 ± 0.04; C -0.064 ± 0.082; P -0.169 ± 0.069; F -0.055 ± 0.072; Y -0.129 ± 0.093; K 0.005 ± 0.076; A -0.039 ± 0.045; I -0.163 ± 0.1; T -0.018 ± 0.073; S -0.084 ± 0.057; H -0.036 ± 0.1; N -0.168 ± 0.12; G -0.039 ± 0.03
D67: K -0.127 ± 0.22; T -0.262 ± 0.35; P -0.154 ± 0.12; F -0.036 ± 0.31; A 0.149 ± 0.2; I 0.127 ± 0.3; L -0.321 ± 0.15; Q -0.034 ± 0.28; S 0.037 ± 0.11; E 0.069 ± 0.26; W 0.053 ± 0.18; R 0.146 ± 0.12; G -0.098 ± 0.19; Y -0.144 ± 0.27
K64: H -0.372 ± 0.29; Q -0.063 ± 0.3; W -0.24 ± 0.2; G 0.031 ± 0.13; C -0.146 ± 0.16; A 0.034 ± 0.34; I -0.368 ± 0.35; L -0.07 ± 0.12; Y -0.026 ± 0.29; V 0.002 ± 0.12; R -0.146 ± 0.11; T -0.164 ± 0.17; D -0.118 ± 0.39; P -0.215 ± 0.15
Y62: A -0.099 ± 0.17; W 0.281 ± 0.36; H 0.117 ± 0.33; N 0.002 ± 0.17; G -0.075 ± 0.34; T -0.174 ± 0.28; P 0.177 ± 0.29; C -0.162 ± 0.34; M 0.116 ± 0.15; S -0.129 ± 0.11; F 0.16 ± 0.43; V -0.184 ± 0.16
D58: Y -0.067 ± 0.22; G 0.031 ± 0.12; E 0.085 ± 0.3; C 0.054 ± 0.29; R 0.04 ± 0.11; S 0.014 ± 0.16; A 0.04 ± 0.12; K 0.012 ± 0.34; F -0.099 ± 0.28; P -0.342 ± 0.24; W -0.461 ± 0.17; T 0.008 ± 0.2; V 0.023 ± 0.16
Y55: A -0.152 ± 0.25; M -0.231 ± 0.25; L -0.051 ± 0.21; S -0.437 ± 0.18; K -0.352 ± 0.29; G -0.529 ± 0.25; H 0.218 ± 0.32; D -0.531 ± 0.24; R 0.055 ± 0.18; W 0.014 ± 0.18; E -0.425 ± 0.37; V -0.128 ± 0.23; F 0.117 ± 0.16
S72: M -0.149 ± 0.19; W 0.007 ± 0.15; N -0.204 ± 0.25; D -0.109 ± 0.32; R -0.154 ± 0.14; Q 0.086 ± 0.25; F -0.066 ± 0.15; E 0.125 ± 0.35; P 0.069 ± 0.16; T -0.1 ± 0.33; C -0.107 ± 0.3; A -0.016 ± 0.11; L 0.002 ± 0.14; Y 0.173 ± 0.21
K59: Y -0.077 ± 0.19; C -0.104 ± 0.18; H 0.323 ± 0.39; G -0.133 ± 0.16; P -0.229 ± 0.21; E -0.31 ± 0.33; W -0.084 ± 0.18; F -0.107 ± 0.27; V 0.119 ± 0.15; T 0.089 ± 0.38; I 0.026 ± 0.2; D -0.153 ± 0.18; M -0.136 ± 0.31; A 0.012 ± 0.099; Q -0.022 ± 0.21
Q54: L -0.121 ± 0.049; N 0.089 ± 0.089; C -0.001 ± 0.1; Y -0.144 ± 0.096; W -0.279 ± 0.064; E -0.067 ± 0.092; I -0.045 ± 0.14; K -0.07 ± 0.086; H 0.035 ± 0.13; F -0.114 ± 0.087; T 0.044 ± 0.068; S 0.017 ± 0.059; P -0.168 ± 0.08; V -0.045 ± 0.039; R -0.013 ± 0.039; G -0.048 ± 0.053
I66: E 0.007 ± 0.16; M -0.022 ± 0.45; S 0.061 ± 0.46; L -0.008 ± 0.13; Q 0.185 ± 0.46; K -0.432 ± 0.28; R 0.03 ± 0.2; A -0.032 ± 0.18; C 0.131 ± 0.18; W 0.011 ± 0.19; Y -0.2 ± 0.36; G -0.074 ± 0.083; T -0.047 ± 0.22
